We go through 5 substances from article PMC10180240, “Semi-Rational Design of L-Isoleucine Dioxygenase Generated Its Activity for Aromatic Amino Acid Hydroxylation” (Molecules, 2023).

Data set [1] concerns T1, N[C@@H](Cc1ccccc1)C(=O)O.
T1 construct: full-length ido (240 aa without tag) in pET-28a(+) NcoI/SalI, expressed in E. coli BL21(DE3), Ni column
Description: succinate release, succinic acid assay kit; Michaelis-Menten fit. The class given is biochemical, Bacillus thuringiensis. Conditions: 10 mM alpha-KG, 0.5 mM FeSO4, 10 mM ascorbic acid, 50 mM Bis-Tris pH 6.0, 25 °C. From the text: (§1) succinate release, succinic acid assay kit; Michaelis-Menten fit on L-isoleucine dioxygenase (IDO)

The test system of data set [2] is T2, N[C@@H](CCc1ccccc1)C(=O)O.
T2 construct: full-length ido (240 aa without tag) in pET-28a(+) NcoI/SalI, expressed in E. coli BL21(DE3), Ni column
The description is as above. The class given is biochemical, Bacillus thuringiensis. Conditions: 10 mM alpha-KG, 0.5 mM FeSO4, 10 mM ascorbic acid, 50 mM Bis-Tris pH 6.0, 25 °C.
Text: as §1

Take “L-isoleucine dioxygenase (IDO) (Bacillus thuringiensis; Y143D)”: in data set [1], the Km (in general, the concentration of substrate that gives half-maximal velocity) was found to be 40 ± 0 µM; the Vmax (commonly the rate approached at saturating substrate) amounted to 0.15 µmol/min/mg; the catalytic constant (kcat) (as a rule, the number of substrate molecules converted per active site and unit of time at saturation) turned out to be 0.08 s⁻¹; the specificity constant (kcat/Km) (usually the turnover number divided by the Michaelis constant) is 2000 ± 10 M⁻¹ s⁻¹.
In the case of “L-isoleucine dioxygenase (IDO) (Bacillus thuringiensis; S153Q)”, in data set [2], the Km was 40 ± 10 µM, the Vmax is 0.21 µmol/min/mg, the kcat amounted to 0.14 ± 0.01 s⁻¹ and the specificity constant (kcat/Km) is 3500 ± 100 M⁻¹ s⁻¹.
For the substance “L-isoleucine dioxygenase (IDO) (Bacillus thuringiensis; Y143I)”, in data set [2], the Km came out at 20 ± 0 µM, the Vmax was 0.08 µmol/min/mg, the kcat came to 0.04 s⁻¹ and the kcat/Km came out at 2000 ± 80 M⁻¹ s⁻¹. Besides, in data set [1], the Km came to 30 ± 0 µM, the maximum rate (Vmax) was found to be 0.1 µmol/min/mg, the kcat came to 0.04 s⁻¹ and the specificity constant (kcat/Km) was 1330 ± 40 M⁻¹ s⁻¹.
For the substance “L-isoleucine dioxygenase (IDO) (Bacillus thuringiensis; S153Y)”, in data set [2], the Km was found to be 20 ± 0 µM, the Vmax amounted to 0.08 µmol/min/mg, the kcat turned out to be 0.03 s⁻¹ and the specificity constant (kcat/Km) stood at 1500 ± 40 M⁻¹ s⁻¹.
Take “L-isoleucine dioxygenase (IDO) (Bacillus thuringiensis; S153A)”: in data set [2], the Km worked out at 20 ± 0 µM, the Vmax was determined as 0.09 µmol/min/mg, the kcat was found to be 0.05 s⁻¹ and the kcat/Km was 2500 ± 40 M⁻¹ s⁻¹. In addition, in data set [1], the Km was found to be 20 ± 0 µM, the Vmax amounted to 0.05 µmol/min/mg, the kcat is 0.03 s⁻¹ and the kcat/Km was 1500 ± 50 M⁻¹ s⁻¹.
